Assay: yeast display, Sf9 membrane polyspecificity reagent, FACS + sequencing; frameworks hold sequencing errors
How it was run: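 In a synthetic yeast display library (Saccharomyces cerevisiae BJ5465), nanobody expression was induced with galactose for 36–48 hours. FACS gates were set low and high (top ~1%) using anti-HA fluorescence for expression and streptavidin fluorescence for binding of the Sf9 membrane reagent. Each polyreactivity label is drawn from the gate of origin.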

| Sequence | polyreactivity (PSR sort gate) |
| --- | --- |
| QVQLVESGGGLVQAGGSLRLSCAASGRIFEHYPMGWYRPAPGKERELVAAISRSGGRTYYADSVKGRFTISRDNAKNTVTLQMNSVKPEDTEVDYCAAVGVYWYVYPHEYDYWGQGSQVTVSS | high polyreactivity |
| QVQLVESGGGLVQAGGSLRLSCAASGRIFEKYAMGWYRQAPGKERELVAAISYSGGSTYYADSVKGRFTISRDNAKNTVYLQMNSLKPEDTAVYYCARYSRTQAYDYWGQGTQVTVSS | high polyreactivity |
| QVQLVESGGGLVQAGGSLRLSCAASGRIFENNAMGWYRPAPGKERELVAAITSGGSTYYADSVKGRFTISRDNAKNTVYLQMNSLKPEDTAVYYCNVTFRVDPWTRTGYDYWGQGTQVTVSS | high polyreactivity |
| QVQLVESGGGLVQAGGSLRLSCAASGRIFERYAMGWYRQAPGKERELVAAISGGGSTYYADSVKGRFTISRDNAKNTVYLQMNSLTPEDTAFYYCNTRGNSRMDYWGQGTQVTVSS | high polyreactivity |
| QVQLVESGGGLVQAGGSLRLSCAASGRIFEVYTMGWYRQAPGKERELVAAIDRSTGSTYYADSVKGRFTISRDNAKNTVYLQMHSLKPEDTAVYYCAARGTFLGTRPLGRFDYWGQGTQVTVSS | low polyreactivity |
| QVQLVESGGGLVQAGGSLRLSCAASGRIFEYAMGWYRQAPGKERELVAGITRSSSTNYADSVKGRFTISRDNAKNTVYLQKNSLKPEDTAVYYCNAESRSWYLYHYDYWGQGTQVTVSS | low polyreactivity |
| QVQLVESGGGLVQAGGSLRLSCAASGRIFFGYAMGWYRQAPGKERELVATISYNDTSTYYADSVKGRFTISRDNAKNTVYLQMNSLKPEDTAVYYCAKSLGAPASDDYWGQGTQVTVSS | low polyreactivity |
| QVQLVESGGGLVQAGGSLRLSCAASGRIFFHYAMGWYRQPPGKERELVAVISSSGGITYYADSVKGRFTISRDNAKNTVYLQMNSLKPEDTAVYYCNTVPRPFDRYGYWGQGTQVTVSS | low polyreactivity |
| QVQLVESGGGLVQAGGSLRLSCAASGRIFFNYAMGWYSQAPGKERELVAAIRGGGSTYADSVKGRFTISRDNAKNTVYLQLNSLKPADTAVYYCAARYSGSPYHTRRYYYWGQGTQVTVSS | high polyreactivity |
| QVQLVESGGGLVQAGGSLRLSCAASGRIFFPNPMGWYRQAPGKDREFVAGITVSGGSTYYADSVKGRFTISRDNAKNTVYFQMNSLKPEDTAVYYCGAYWAQGTRYEYRLNYWGQGTLVTVSS | low polyreactivity |
| QVQLVESGGGLVQAGGSLRLSCAASGRIFFRYVMGWYRQAPGKERELVAAISSGGRTYYADSVKGRFTISRDNAKNTVYLQMNSLKPEDTAVYYCAADLLLYSSQDNDYWGQGTQVTVSS | low polyreactivity |
| QVQLVESGGGLVQAGGSLRLSCAASGRIFFSNAMGWYRQAQGKEREMVASITGGDDTNYADSVKGRFTISRDNAKNTVYLQMNSLKPEDTAVYYCAARAIPSYRWFYRFAPKYDYWGQGTQVTVSS | low polyreactivity |
| QVQLVESGGGLVQAGGSLRLSCAASGRIFFTYAMGWYRQAPGKERELVASITGSGGSTYYADSVKGRFTISRDNAKNTVYLQMNSLQPEETAVYYCAAALFPRQLYRKFYYWGQGTQVTVSS | low polyreactivity |
| QVQLVESGGGLVQAGGSLRLSCAASGRIFFVNAMGWYRQAPGKERELVAAISRGGSTNYADSVKGRFTISRDNAKNTVYLQMNSLKPEDTEVYYCNADGSSYWYPVPLDGGDYWGQGTQVTVSS | low polyreactivity |
| QVQLVESGGGLVQAGGSLRLSCAASGRIFFVYAMGWYRQAPGKERELVAAITASGGSTYYADSVKVRFTISRDNAKNSVYLQMNSLNPEDTAVYDCAAAGYGWGGYREYGWGQGTQVTVSS | low polyreactivity |
| QVQLVESGGGLVQAGGSLRLSCAASGRIFFWYAMGWYRQAPGKERELVASINWSGVSTYYADSVKGRFTISRDNAKNTVYLQMNSLKPEDTAVYYCNRVRGLYWQRHGYWGQGTQVTVSS | high polyreactivity |

| Sequence | polyreactivity (PSR sort gate) |
| --- | --- |
| QVQLVESGGGLVQAGGSLRLSCAASGRIFFYAMGWYRQAPGKERELVASITTSGTSTYYADSVKGRFTISRDNAKNTVYLQMNSLKPEDTAVYYCNATSNSIRWYDFYYWGQGTQVTVSS | low polyreactivity |
| QVQLVESGGGLVQAGGSLRLSCAASGRIFFYYAKGWSRQAPGKARELVAAINRGGRTYYADSVKGRFTISRDNAKNTVYLQMNSLKPEDTADYYCAADCHTAKSNFDYWGQGTQVTVSS | low polyreactivity |
| QVQLVESGGGLVQAGGSLRLSCAASGRIFFYYAMGLYRQATGKERELVAAITDSVDSTYYADSVKGRFTISRDNAKNTVYFQMKSLKPEDTAVYYCATDVDWAYGYHYEYWGQGPQVTVSS | low polyreactivity |
| QVQLVESGGGLVQAGGSLRLSCAASGRIFFYYAMGWYRQAPGKERELVAAISQSGGSSYYADSVKGRFTISRDNAKNTVYLQLTSLKPEDTAVYYCAADDRYYTYGYDYWGQGTQVTVSS | low polyreactivity |
| QVQLVESGGGLVQAGGSLRLSCAASGRIFGAYAMGWYRQAPGKERELVAAITSRGGNTYYADSVKGRFTISRDNAKNTVYFQMNSLKPEDTAVYYWAARHDKRRQYYVGQSAFDYWGQGTQVTVSS | low polyreactivity |
| QVQLVESGGGLVQAGGSLRLSCAASGRIFGAYAMGWYRQAPGKERELVASITGRGTSTYYADSVKGRFTISRDNAKNTVYLQMNSLKPEDSAVYYCAADKTVRSSNYDYWGQGTQVTVSS | low polyreactivity |
| QVQLVESGGGLVQAGGSLRLSCAASGRIFGDNAMGWYRQAPGKEREFVAAISWSGGTTYYADSVKGRFTISRDNAKNTVYLQMNSLKPEDTAVYYCAADYTRGYDYWGQGTQVTVSS | low polyreactivity |
| QVQLVESGGGLVQAGGSLRLSCAASGRIFGDNAMGWYRQAPGKERELVAAITSGGNTYYADSVKGRFTISRDNAKNTVYLQMNSLKPEDTAVYYCNVADWRRWGYDYWGQGTQVTVSS | low polyreactivity |
| QVQLVESGGGLVQAGGSLRLSCAASGRIFGFYAMGCYRQAPGKERELVAVITYRDGRTYYADSVKGRFTISRDNEKNTVYLQMNSLKPEDTAVYYCARGYQGRLKYESWGQGTQVTVSS | low polyreactivity |
| QVQLVESGGGLVQAGGSLRLSCAASGRIFGFYAMGWYRPAPGKERELVARITLSGGRTYYADSVKGRFTISRDNAKNTVYLQMNSLKPEDTAVYYCAADSIGRLWGYGYWGQGTQVTVSS | high polyreactivity |
| QVQLVESGGGLVQAGGSLRLSCAASGRIFGFYAMGWYRQAPGKERELVARITLSGGRTYYADSVKGRFTISRDNAKNTVYLQMNSLKPEDTAVYYCAAVSYSKRTWSMNYWGQGTQVTVSS | high polyreactivity |
| QVQLVESGGGLVQAGGSLRLSCAASGRIFGFYTMGWYRQAPGKERELVAVINRGGRTYYADSVKGRFTISRDNAKNTVYLQMNSLKPEDTAVYYCAADYYTQGAYRGMDYWGQGTQVTVSS | high polyreactivity |
| QVQLVESGGGLVQAGGSLRLSCAASGRIFGGNAMGGYRQAPGKERELVAAITTGGSTNYADSVKGRFTISRDNAKNTVYLQMNSLKPEDTAVYYCNKRQSARLYGDTYDYWGQGTQVTVSS | low polyreactivity |
| QVQLVESGGGLVQAGGSLRLSCAASGRIFGGNAMGWFRQAPGKERELVAASTTRGGSTSADSVKGRFTISRDNAKNTVYLHMNSLKPEATAVYYCAVARSSHGGPRYLVRTYGYWGQATQVTVSS | low polyreactivity |
| QVQLVESGGGLVQAGGSLRLSCAASGRIFGGNAMGWYRKAPGTEREVVAAISWIGGTTYYADSVKGRFTISRDNAKNTVYLQMISLKPEDTAVYYCAAYRYRPHDHRYYRYDYWGQGTQVTVSS | high polyreactivity |
